Assay results taken from patent US20080260641A1 (Genmab, published 2008).

T1: human CD20 (human, UniProt P11836 1-297)
T1 construct: whole, on cells; also called WT CD20; wild-type (WT) CD20
T1 sequence (looked up): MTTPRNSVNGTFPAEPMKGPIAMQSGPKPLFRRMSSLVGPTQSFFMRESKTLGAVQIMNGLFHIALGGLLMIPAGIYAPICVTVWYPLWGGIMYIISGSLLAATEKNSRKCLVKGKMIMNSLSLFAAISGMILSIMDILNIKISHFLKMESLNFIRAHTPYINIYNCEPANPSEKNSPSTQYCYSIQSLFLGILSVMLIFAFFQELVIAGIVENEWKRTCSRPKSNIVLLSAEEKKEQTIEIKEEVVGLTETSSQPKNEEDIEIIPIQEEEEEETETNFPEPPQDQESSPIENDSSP


Experiments:
[1] = biological target: T1, human CD20; assay: flow cytometry blocking assay on CD20-NS/0 cells: pre-incubation with the control, then competitor rituximab-FITC 10 µg/ml
[2] = biological target: T1, human CD20; assay: flow cytometry on CD20-positive NS/0 cells, control antibody
[3] = biological target: T1, human CD20; assay: flow cytometry, FITC-conjugated antibodies on Daudi and Raji cells

Blocking of rituximab (signal of rituximab-FITC left after pre-incubation) [1]	Binding CD20-NS/0 (mean fluorescence) (mean fluorescence) [2]	binding result [3]	Molecule
179	14		human IgG1 control antibody
182	9		human IgM control antibody
		binds	11B8 (antibody, V domains shown, also called human recombinant monoclonal IgG1,κ anti-CD20 antibody 11B8) VH: EVQLVQSGGGLVHPGGSLRLSCTGSGFTFSYHAMHWVRQAPGKGLEWVSIIGTGGVTYYADSVKGRFTISRDNVKNSLYLQMNSLRAEDMAVYYCARDYYGAGSFYDGLYGMDVWGQGTTVTVSS VL: EIVLTQSPATLSLSPGERATLSCRASQSVSSYLAWYQQKPGQAPRLLIYDASNRATGIPARFSGSGSGTDFTLTISSLEPEDFAVYYCQQRSDWPLTFGGGTKVEIK
